Laboratory results taken from the Immune Epitope Database (IEDB).

Key:
[1] = target: HLA-A*11:01; experiment: IEDB peptide-MHC binding, purified MHC/competitive/fluorescence; ≥ and ≤ were set here for values at or beyond the usual limits of such assays
[2] = target: HLA-A*02:03; experiment: IEDB peptide-MHC binding, purified MHC/direct/fluorescence; filed as Kd, often an IC50 or EC50 that approximates it; ≥ and ≤ were set here for values at or beyond the usual limits of such assays; details: source organism: Mycobacterium tuberculosis str. Haarlem
[3] = target: HLA-A*24:02; experiment: IEDB peptide-MHC binding, purified MHC/competitive/fluorescence; ≥ and ≤ were set here for values at or beyond the usual limits of such assays
[4] = target: HLA-B*08:01; experiment: as above
[5] = target: HLA-A*02:01; experiment: as above
[6] = target: HLA-B*58:01; experiment: IEDB peptide-MHC binding, purified MHC/direct/fluorescence; filed as Kd, often an IC50 or EC50 that approximates it; ≥ and ≤ were set here for values at or beyond the usual limits of such assays
[7] = target: HLA-A*01:01; experiment: as above
[8] = target: HLA-B*07:02; experiment: as above; details: source organism: Mycobacterium avium 104
[9] = target: HLA-B*15:01; experiment: as above
[10] = target: HLA-A*29:02; experiment: as above
[11] = target: HLA-B*39:01; experiment: as above
[12] = target: HLA-B*27:05; experiment: as above
[13] = target: HLA-A*11:01; experiment: as above
[14] = target: HLA-B*44:02; experiment: as above
[15] = target: HLA-A*69:01; experiment: as above
[16] = target: HLA-A*03:01; experiment: as above
[17] = target: HLA-A*31:01; experiment: as above
[18] = target: HLA-B*46:01; experiment: as above
[19] = target: HLA-B*48:01; experiment: as above
[20] = target: HLA-B*18:01; experiment: as above
[21] = target: HLA-A*02:01; experiment: as above
[22] = target: HLA-B*57:01; experiment: as above
[23] = target: HLA-B*58:01; experiment: IEDB peptide-MHC binding, purified MHC/competitive/radioactivity; filed as Kd, often an IC50 or EC50 that approximates it; ≥ and ≤ were set here for values at or beyond the usual limits of such assays; details: source organism: Dengue virus 1 Brazil/97-11/1997
[24] = target: HLA-B*53:01; experiment: as above; details: source organism: Dengue virus 1 Brazil/97-11/1997
[25] = target: HLA-B*40:01; experiment: IEDB peptide-MHC binding, purified MHC/direct/fluorescence; filed as Kd, often an IC50 or EC50 that approximates it; ≥ and ≤ were set here for values at or beyond the usual limits of such assays
[26] = target: HLA-B*15:17; experiment: as above
[27] = target: HLA-B*51:01; experiment: as above; details: source organism: Mycobacterium tuberculosis
[28] = target: HLA-A*02:17; experiment: IEDB peptide-MHC binding, purified MHC/competitive/radioactivity; filed as Kd, often an IC50 or EC50 that approximates it; ≥ and ≤ were set here for values at or beyond the usual limits of such assays
[29] = target: HLA-A*02:06; experiment: as above
[30] = target: HLA-A*02:01; experiment: as above
[31] = source organism: Vaccinia virus
[32] = source organism: Zaire ebolavirus
[33] = source organism: Mycobacterium avium 104
[34] = source organism: Vaccinia virus WR
[35] = source organism: Mycobacterium tuberculosis
[36] = source organism: West Nile virus
[37] = source organism: Dengue virus 2 Jamaica/1409/1983
[38] = source organism: Dengue virus 4 Philippines/H241/1956
[39] = source organism: Lake Victoria marburgvirus - Popp

Question: Which IC50 [1, 31] does the source give for AADEPPLVR here?
Answer: ≥ 142 µM

Question: With AMWDWSKSV as the sequence, how does the Kd [2] read?
Answer: ≤ 0.001 µM

Question: How did the IC50 [3, 32] turn out when DMDYHKILT was run?
Answer: 4.04 µM

Question: What about the IC50 [4, 32] of the same sequence?
Answer: ≥ 199 µM

Question: And the IC50 [5, 32]?
Answer: ≥ 277 µM

Question: How did the Kd [6, 33] turn out when EHVQGDIDL was run?
Answer: ≥ 20 µM

Question: What about the Kd [7, 33] of the same sequence?
Answer: ≥ 20 µM

Question: What about the Kd [8] of the same sequence?
Answer: ≥ 20 µM

Question: What about the Kd [9, 33] of the same sequence?
Answer: ≥ 20 µM

Question: And the Kd [10, 33]?
Answer: ≥ 20 µM

Question: And the Kd [11, 33]?
Answer: 0.224 µM

Question: What about the Kd [12, 33] of the same sequence?
Answer: ≥ 20 µM

Question: And the Kd [13, 33]?
Answer: ≥ 20 µM

Question: What about the Kd [14, 33] of the same sequence?
Answer: ≥ 20 µM

Question: What about the Kd [15, 33] of the same sequence?
Answer: ≥ 20 µM

Question: And the Kd [16, 33]?
Answer: ≥ 20 µM

Question: What about the Kd [17, 33] of the same sequence?
Answer: ≥ 20 µM

Question: What about the Kd [18, 33] of the same sequence?
Answer: ≥ 20 µM

Question: And the Kd [19, 33]?
Answer: ≥ 20 µM

Question: And the Kd [20, 33]?
Answer: ≥ 20 µM

Question: What about the Kd [21, 33] of the same sequence?
Answer: ≥ 20 µM

Question: What about the Kd [22, 33] of the same sequence?
Answer: ≥ 20 µM

Question: For ENKKNLSEQ, which IC50 ([1]; source organism: Sudan ebolavirus) is on record?
Answer: ≥ 75.4 µM

Question: Which results are given for FRAFRNLNV?
Answer: IC50 [4, 31]: 6.19 µM; IC50 [5, 31]: ≥ 89.1 µM

Question: For FVTNEVHTW, which Kd [23] is on record?
Answer: 0.0299 µM

Question: And the Kd [24]?
Answer: 0.0612 µM

Question: With FYTRVLKPS as the sequence, how does the IC50 [3, 34] read?
Answer: 7.11 µM

Question: And the IC50 [1, 34]?
Answer: ≥ 179 µM

Question: And the IC50 [5, 34]?
Answer: ≥ 110 µM

Question: How did the Kd [6, 35] turn out when GPRGRHVVL was run?
Answer: ≥ 20 µM

Question: And the Kd [7, 35]?
Answer: ≥ 20 µM

Question: And the Kd [25, 35]?
Answer: ≥ 20 µM

Question: And the Kd [9, 35]?
Answer: ≥ 20 µM

Question: What about the Kd ([11]; source organism: Mycobacterium tuberculosis str. Haarlem) of the same sequence?
Answer: ≥ 20 µM

Question: And the Kd [12, 35]?
Answer: ≥ 20 µM

Question: What about the Kd [13, 35] of the same sequence?
Answer: ≥ 20 µM

Question: And the Kd [15, 35]?
Answer: ≥ 20 µM

Question: What about the Kd [26, 35] of the same sequence?
Answer: ≥ 20 µM

Question: What about the Kd [27] of the same sequence?
Answer: ≥ 20 µM

Question: What about the Kd [16, 35] of the same sequence?
Answer: ≥ 20 µM

Question: What about the Kd [17, 35] of the same sequence?
Answer: ≥ 20 µM

Question: And the Kd [18, 35]?
Answer: ≥ 20 µM

Question: What about the Kd [19, 35] of the same sequence?
Answer: ≥ 20 µM

Question: What about the Kd [20, 35] of the same sequence?
Answer: ≥ 20 µM

Question: What about the Kd [21, 35] of the same sequence?
Answer: ≥ 20 µM

Question: And the Kd [22, 35]?
Answer: ≥ 20 µM

Question: Which IC50 [1, 36] does the source give for GTSGSPIVDK here?
Answer: 0.212 µM

Question: Which Kd [28, 37] does the source give for IILEFFLIVL here?
Answer: 0.802 µM

Question: And the Kd [29, 37]?
Answer: 0.325 µM

Question: And the Kd [30, 37]?
Answer: 0.109 µM

Question: IILEFFLMVL was tested. Which Kd [28, 38] did it give?
Answer: 1.4 µM

Question: And the Kd ([29]; source organism: Dengue virus 1 Brazil/97-11/1997)?
Answer: 0.329 µM

Question: And the Kd [30, 38]?
Answer: 0.0955 µM

Question: IMAAILAYTI was tested. Which Kd [28, 37] did it give?
Answer: 1.6 µM

Question: And the Kd [30, 37]?
Answer: 0.0306 µM

Question: ITDITSPLW was tested. Which Kd [6, 39] did it give?
Answer: 0.003 µM

Question: What about the Kd [26, 39] of the same sequence?
Answer: ≤ 0.001 µM

Question: What about the Kd [22, 39] of the same sequence?
Answer: 0.0645 µM

Question: KIRNRIERL was tested. Which Kd [7, 36] did it give?
Answer: ≥ 20 µM

Question: And the Kd [25, 36]?
Answer: ≥ 20 µM

Question: What about the Kd [10, 36] of the same sequence?
Answer: ≥ 20 µM

Question: And the Kd [12, 36]?
Answer: ≥ 20 µM

Question: What about the Kd [13, 36] of the same sequence?
Answer: ≥ 20 µM

Question: And the Kd [14, 36]?
Answer: ≥ 20 µM

Question: What about the Kd [15, 36] of the same sequence?
Answer: ≥ 20 µM

Question: What about the Kd [16, 36] of the same sequence?
Answer: ≥ 20 µM

Question: What about the Kd [18, 36] of the same sequence?
Answer: ≥ 20 µM

Question: What about the Kd [19, 36] of the same sequence?
Answer: ≥ 20 µM

Question: What about the Kd [20, 36] of the same sequence?
Answer: ≥ 20 µM

Question: And the Kd [22, 36]?
Answer: ≥ 20 µM
